Measurements as given in IntAct's records for PubMed 23463101.

B1: Trinucleotide repeat-containing gene 6C protein (Homo sapiens), Q9HCJ0-1 (parent)
chain: MATGSAQGNFTGHTKKTNGNNGTNGALVQSPSNQSALGAGGANSNGSAARVWGVATGSSSGLAHCSVSGGDGKMDTMIGDGRSQNCWGASNSNAGINLNLNPNANPAAWPVLGHEGTVATGNPSSICSPVSAIGQNMGNQNGNPTGTLGAWGNLLPQESTEPQTSTSQNVSFSAQPQNLNTDGPNNTNPMNSSPNPINAMQTNGLPNWGMAVGMGAIIPPHLQGLPGANGSSVSQVSGGSAEGISNSVWGLSPGNPATGNSNSGFSQGNGDTVNSALSAKQNGSSSAVQKEGSGGNAWDSGPPAGPGILAWGRGSGNNGVGNIHSGAWGHPSRSTSNGVNGEWGKPPNQHSNSDINGKGSTGWESPSVTSQNPTVQPGGEHMNSWAKAASSGTTASEGSSDGSGNHNEGSTGREGTGEGRRRDKGIIDQGHIQLPRNDLDPRVLSNTGWGQTPVKQNTAWEFEESPRSERKNDNGTEAWGCAATQASNSGGKNDGSIMNSTNTSSVSGWVNAPPAAVPANTGWGDSNNKAPSGPGVWGDSISSTAVSTAAAAKSGHAWSGAANQEDKSPTWGEPPKPKSQHWGDGQRSNPAWSAGGGDWADSSSVLGHLGDGKKNGSGWDADSNRSGSGWNDTTRSGNSGWGNSTNTKANPGTNWGETLKPGPQQNWASKPQDNNVSNWGGAASVKQTGTGWIGGPVPVKQKDSSEATGWEEPSPPSIRRKMEIDDGTSAWGDPSNYNNKTVNMWDRNNPVIQSSTTTNTTTTTTTTTSNTTHRVETPPPHQAGTQLNRSPLLGPGRKVSSGWGEMPNVHSKTENSWGEPSSPSTLVDNGTAAWGKPPSSGSGWGDHPAEPPVAFGRAGAPVAASALCKPASKSMQEGWGSGGDEMNLSTSQWEDEEGDVWNNAASQESTSSCSSWGNAPKKGLQKGMKTSGKQDEAWIMSRLIKQLTDMGFPREPAEEALKSNNMNLDQAMSALLEKKVDVDKRGLGVTDHNGMAAKPLGCRPPISKESSVDRPTFLDKDGGLVEEPTPSPFLPSPSLKLPLSHSALPSQALGGIASGLGMQNLNSSRQIPSGNLGMFGNSGAAQARTMQQPPQPPVQPLNSSQPSLRAQVPQFLSPQVQAQLLQFAAKNIGLNPALLTSPINPQHMTMLNQLYQLQLAYQRLQIQQQMLQAQRNVSGSMRQQEQQVARTITNLQQQIQQHQRQLAQALLVKQPPPPPPPPHLSLHPSAGKSAMDSFPSHPQTPGLPDLQTKEQQSSPNTFAPYPLAGLNPNMNVNSMDMTGGLSVKDPSQSQSRLPQWTHPNSMDNLPSAASPLEQNPSKHGAIPGGLSIGPPGKSSIDDSYGRYDLIQNSESPASPPVAVPHSWSRAKSDSDKISNGSSINWPPEFHPGVPWKGLQNIDPENDPDVTPGSVPTGPTINTTIQDVNRYLLKSGGKLSDIKSTWSSGPTSHTQASLSHELWKVPRNSTAPTRPPPGLTNPKPSSTWGASPLGWTSSYSSGSAWSTDTSGRTSSWLVLRNLTPQIDGSTLRTLCLQHGPLITFHLNLTQGNAVVRYSSKEEAAKAQKSLHMCVLGNTTILAEFAGEEEVNRFLAQGQALPPTSSWQSSSASSQPRLSAAGSSHGLVRSDAGHWNAPCLGGKGSSELLWGGVPQYSSSLWGPPSADDSRVIGSPTPLTTLLPGDLLSGESL

Key:
pabp_drome pAbp, P21187 [1] = variants of: B1; conditions: with pabp_drome pAbp
Chain of pabp_drome pAbp, P21187 (P21187 whole entry): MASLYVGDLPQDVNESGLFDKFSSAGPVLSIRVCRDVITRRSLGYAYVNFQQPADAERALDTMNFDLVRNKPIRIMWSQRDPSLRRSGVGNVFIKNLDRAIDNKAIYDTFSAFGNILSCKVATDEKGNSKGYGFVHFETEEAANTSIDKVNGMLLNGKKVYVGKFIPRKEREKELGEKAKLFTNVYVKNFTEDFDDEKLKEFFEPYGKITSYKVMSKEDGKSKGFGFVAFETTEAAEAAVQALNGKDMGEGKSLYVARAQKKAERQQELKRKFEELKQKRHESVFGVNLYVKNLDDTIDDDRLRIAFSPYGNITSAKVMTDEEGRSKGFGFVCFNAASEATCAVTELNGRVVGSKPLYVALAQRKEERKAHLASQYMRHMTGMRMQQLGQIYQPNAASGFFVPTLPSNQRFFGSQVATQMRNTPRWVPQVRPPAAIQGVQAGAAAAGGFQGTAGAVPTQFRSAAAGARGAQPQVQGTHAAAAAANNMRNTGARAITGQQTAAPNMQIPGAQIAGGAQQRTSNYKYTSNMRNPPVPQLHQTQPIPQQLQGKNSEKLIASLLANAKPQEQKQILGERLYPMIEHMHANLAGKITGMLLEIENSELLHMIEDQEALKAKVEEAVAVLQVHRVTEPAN

[2] = variants of: B1; conditions: with cnot1_human CNOT1, A5YKK6
Chain of cnot1_human CNOT1, A5YKK6 (A5YKK6 whole entry): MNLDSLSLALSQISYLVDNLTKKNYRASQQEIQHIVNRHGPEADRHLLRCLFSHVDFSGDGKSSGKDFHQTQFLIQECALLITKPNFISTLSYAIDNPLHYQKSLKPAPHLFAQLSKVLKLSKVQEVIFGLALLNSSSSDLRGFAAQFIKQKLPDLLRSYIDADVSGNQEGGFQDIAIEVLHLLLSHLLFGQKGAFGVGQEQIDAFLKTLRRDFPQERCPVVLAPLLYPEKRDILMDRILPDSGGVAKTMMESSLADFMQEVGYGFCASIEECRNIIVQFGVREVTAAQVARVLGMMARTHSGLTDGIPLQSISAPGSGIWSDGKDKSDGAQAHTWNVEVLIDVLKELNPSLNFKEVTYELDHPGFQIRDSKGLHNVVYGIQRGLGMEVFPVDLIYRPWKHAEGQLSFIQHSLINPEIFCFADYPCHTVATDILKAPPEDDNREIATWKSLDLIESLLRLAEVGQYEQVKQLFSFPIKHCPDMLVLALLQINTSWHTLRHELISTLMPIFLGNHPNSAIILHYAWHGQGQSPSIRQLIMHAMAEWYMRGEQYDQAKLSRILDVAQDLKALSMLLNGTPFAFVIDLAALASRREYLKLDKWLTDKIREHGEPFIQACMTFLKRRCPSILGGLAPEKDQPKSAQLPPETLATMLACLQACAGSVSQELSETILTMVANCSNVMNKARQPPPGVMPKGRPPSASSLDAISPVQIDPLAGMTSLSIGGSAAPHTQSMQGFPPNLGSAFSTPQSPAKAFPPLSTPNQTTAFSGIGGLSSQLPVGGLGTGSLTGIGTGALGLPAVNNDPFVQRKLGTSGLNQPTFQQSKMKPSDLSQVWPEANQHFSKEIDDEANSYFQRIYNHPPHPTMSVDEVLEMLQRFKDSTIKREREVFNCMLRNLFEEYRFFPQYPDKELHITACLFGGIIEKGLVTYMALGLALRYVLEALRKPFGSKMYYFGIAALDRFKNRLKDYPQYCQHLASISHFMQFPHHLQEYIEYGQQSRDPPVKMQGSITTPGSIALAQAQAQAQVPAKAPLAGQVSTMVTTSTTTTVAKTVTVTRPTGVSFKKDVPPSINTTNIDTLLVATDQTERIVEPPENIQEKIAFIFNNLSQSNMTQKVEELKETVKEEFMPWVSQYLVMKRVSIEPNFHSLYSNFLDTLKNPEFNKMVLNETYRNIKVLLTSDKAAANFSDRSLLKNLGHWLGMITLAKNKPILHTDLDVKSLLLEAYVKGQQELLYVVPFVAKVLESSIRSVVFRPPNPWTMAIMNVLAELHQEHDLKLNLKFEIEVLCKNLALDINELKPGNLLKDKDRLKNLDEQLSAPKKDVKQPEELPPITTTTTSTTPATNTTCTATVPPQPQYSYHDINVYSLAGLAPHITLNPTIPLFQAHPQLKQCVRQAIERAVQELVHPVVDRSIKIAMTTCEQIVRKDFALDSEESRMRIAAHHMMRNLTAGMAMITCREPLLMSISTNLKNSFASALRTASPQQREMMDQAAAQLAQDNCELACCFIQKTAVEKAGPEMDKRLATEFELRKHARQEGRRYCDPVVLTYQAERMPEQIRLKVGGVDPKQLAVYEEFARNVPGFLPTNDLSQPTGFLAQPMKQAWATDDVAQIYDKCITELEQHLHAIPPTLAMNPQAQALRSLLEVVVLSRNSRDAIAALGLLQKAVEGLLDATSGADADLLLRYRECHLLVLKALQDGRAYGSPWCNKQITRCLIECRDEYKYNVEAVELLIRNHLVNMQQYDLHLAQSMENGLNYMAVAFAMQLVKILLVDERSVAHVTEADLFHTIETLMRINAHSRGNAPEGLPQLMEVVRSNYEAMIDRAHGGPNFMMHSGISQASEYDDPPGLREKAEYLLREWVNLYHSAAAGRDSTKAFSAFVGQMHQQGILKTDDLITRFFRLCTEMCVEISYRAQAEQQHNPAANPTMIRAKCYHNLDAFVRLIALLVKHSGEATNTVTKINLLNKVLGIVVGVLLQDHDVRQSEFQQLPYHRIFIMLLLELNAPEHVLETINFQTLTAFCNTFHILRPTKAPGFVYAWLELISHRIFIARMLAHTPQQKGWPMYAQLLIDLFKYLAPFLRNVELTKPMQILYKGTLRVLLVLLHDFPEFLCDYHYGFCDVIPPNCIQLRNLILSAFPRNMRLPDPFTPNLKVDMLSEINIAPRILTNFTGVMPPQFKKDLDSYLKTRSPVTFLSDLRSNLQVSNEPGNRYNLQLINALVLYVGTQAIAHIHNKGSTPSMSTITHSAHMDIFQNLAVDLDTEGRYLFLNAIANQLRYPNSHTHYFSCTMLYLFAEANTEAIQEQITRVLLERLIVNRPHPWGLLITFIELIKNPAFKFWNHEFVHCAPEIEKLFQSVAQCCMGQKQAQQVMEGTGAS

pabp_drome pAbp, P21187 [3] = variants of: B1; conditions: with pabp_drome pAbp; remark: listed apart in the source
pabp_drome pAbp, P21187 [4] = variants of: B1; conditions: with pabp_drome pAbp; remark: listed apart in the source

Row | Variant | effect of a mutation on the interaction (pabp_drome pAbp, P21187 [1]) | effect of a mutation on the interaction [2] | effect of a mutation on the interaction (pabp_drome pAbp, P21187 [3]) | effect of a mutation on the interaction (pabp_drome pAbp, P21187 [4])
1 | F1389A | disrupting interaction |  |  | 
2 | Q1294A;S1295A;R1296A;L1297A;Q1299A;W1300A |  | disrupting interaction | decreasing interaction | decreasing interaction
